The values below come from the supplement of paper PMC10567573.

First the molecules themselves.
B1: TMEM106C (parent)
chain: TVPEILVHNIVIFMRTSVKISYIG
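Also: lentivirally expressed fusions sorted by FACS into six bins by GFP to DsRed ratio, PSI derived from sequencing read proportions per bin multiplied by bin number.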

The data set covers variants of B1. The data set can be described thus: protein stability index of a GFP-peptide fusion (GPS, HEK-293T) (PSI 1-6); higher = more stable. Conditions: c terminus: a fixed tail appended.
As to TVPEILVHNIVIFMFTSVKISYIG [R15F], the protein stability index was determined as 3.57.

As for TVPEILVHNIVIFMDTSVKISYIG [R15D], the protein stability index was 2.57.

For the variant TVPEILVHNIVIFMTTSVKISYIG [R15T], the protein stability index was 2.69.

With TVPEILVHNIVIFMATSVKISYIG [R15A], the protein stability index turned out to be 2.33.

TVPEILVHNIVIFMPTSVKISYIG [R15P]: the protein stability index came to 2.47.

On to TVPEILVHNIVIFMITSVKISYIG [R15I], for which the protein stability index came out at 4.22.

On to TVPEILVHNIVIFMNTSVKISYIG [R15N], for which the protein stability index was 3.2.

TVPEILVHNIVIFMQTSVKISYIG [R15Q]: the protein stability index worked out at 2.73.

As to TVPEILVHNIVIFMLTSVKISYIG [R15L], the protein stability index came out at 3.26.

On to TVPEILVHNIVIFMCTSVKISYIG [R15C], for which the protein stability index is 2.91.

On to TVPEILVHNIVIFMGTSVKISYIG [R15G], for which the protein stability index stood at 3.23.

As to TVPEILVHNIVIFMETSVKISYIG [R15E], the protein stability index was determined as 1.63.

TVPEILVHNIVIFMSTSVKISYIG [R15S]: the protein stability index was 3.18.

TVPEILVHNIVIFMMTSVKISYIG [R15M]: the protein stability index came out at 3.77.

As to TVPEILVHNIVIFMVTSVKISYIG [R15V], the protein stability index was found to be 3.67.

As for TVPEILVHNIVIFMKTSVKISYIG [R15K], the protein stability index amounted to 3.46.

On to TVPEILVHNIVIFMHTSVKISYIG [R15H], for which the protein stability index is 2.94.

As for TVPEILVHNIEIFMRTSVKISYIG [V11E], the protein stability index worked out at 3.64.

As for TVPEILVHNICIFMRTSVKISYIG [V11C], the protein stability index worked out at 3.91.

As to TVPEILVHNINIFMRTSVKISYIG [V11N], the protein stability index was determined as 2.86.

On to TVPEILVHNIMIFMRTSVKISYIG [V11M], for which the protein stability index came out at 2.77.

In the case of TVPEILVHNIHIFMRTSVKISYIG [V11H], the protein stability index was found to be 3.13.

Consider TVPEILVHNIWIFMRTSVKISYIG [V11W], for which the protein stability index was 2.85.

On to TVPEILVHNISIFMRTSVKISYIG [V11S], for which the protein stability index turned out to be 3.97.

For the variant TVPEILVHNIGIFMRTSVKISYIG [V11G], the protein stability index was 3.12.

For the variant TVPEILVHNIFIFMRTSVKISYIG [V11F], the protein stability index was determined as 4.1.

Take TVPEILVHNIAIFMRTSVKISYIG [V11A]: the protein stability index stood at 4.26.

Regarding TVPEILVHNILIFMRTSVKISYIG [V11L], the protein stability index turned out to be 1.78.

Consider TVPEILVHNITIFMRTSVKISYIG [V11T], for which the protein stability index stood at 3.11.

TVPEILVHNIQIFMRTSVKISYIG [V11Q]: the protein stability index came out at 1.83.

On to TVPEILVHNIDIFMRTSVKISYIG [V11D], for which the protein stability index is 2.52.

As for TVPEILVHNIRIFMRTSVKISYIG [V11R], the protein stability index turned out to be 2.22.

On to TVPEILVHNIYIFMRTSVKISYIG [V11Y], for which the protein stability index worked out at 2.44.

Regarding TVPEILVHNIPIFMRTSVKISYIG [V11P], the protein stability index came to 2.92.

Turning to TVPEILVHFIVIFMRTSVKISYIG [N9F], the protein stability index was 2.06.

Turning to TVPEILVHWIVIFMRTSVKISYIG [N9W], the protein stability index amounted to 3.74.

For TVPEILVHIIVIFMRTSVKISYIG [N9I], the protein stability index is 2.82.

Take TVPEILVHYIVIFMRTSVKISYIG [N9Y]: the protein stability index worked out at 2.44.

As for TVPEILVHHIVIFMRTSVKISYIG [N9H], the protein stability index amounted to 2.15.

Consider TVPEILVHEIVIFMRTSVKISYIG [N9E], for which the protein stability index came to 2.96.

As for TVPEILVHRIVIFMRTSVKISYIG [N9R], the protein stability index came to 2.94.

Regarding TVPEILVHQIVIFMRTSVKISYIG [N9Q], the protein stability index stood at 2.95.

Regarding TVPEILVHKIVIFMRTSVKISYIG [N9K], the protein stability index came to 2.02.

As to TVPEILVHMIVIFMRTSVKISYIG [N9M], the protein stability index is 3.79.

TVPEILVHAIVIFMRTSVKISYIG [N9A]: the protein stability index is 2.89.

Consider TVPEILVHDIVIFMRTSVKISYIG [N9D], for which the protein stability index stood at 3.55.

With TVPEILVHLIVIFMRTSVKISYIG [N9L], the protein stability index was 3.14.

Consider TVPEILVHCIVIFMRTSVKISYIG [N9C], for which the protein stability index worked out at 2.85.

Turning to TVPEILVHGIVIFMRTSVKISYIG [N9G], the protein stability index turned out to be 2.98.

As for TVPEILVHSIVIFMRTSVKISYIG [N9S], the protein stability index stood at 2.31.

For TVPEILVHTIVIFMRTSVKISYIG [N9T], the protein stability index came to 2.49.

For the variant TVPEILVHVIVIFMRTSVKISYIG [N9V], the protein stability index amounted to 2.49.

In the case of TVPEILVHPIVIFMRTSVKISYIG [N9P], the protein stability index came to 3.7.

TVPEILVHNIVIRMRTSVKISYIG [F13R]: the protein stability index came to 2.3.

Take TVPEILVHNIVITMRTSVKISYIG [F13T]: the protein stability index is 2.99.

For the variant TVPEILVHNIVIEMRTSVKISYIG [F13E], the protein stability index amounted to 2.27.

In the case of TVPEILVHNIVIYMRTSVKISYIG [F13Y], the protein stability index was 3.23.

On to TVPEILVHNIVISMRTSVKISYIG [F13S], for which the protein stability index came out at 2.83.

For the variant TVPEILVHNIVIGMRTSVKISYIG [F13G], the protein stability index was 3.8.

TVPEILVHNIVIQMRTSVKISYIG [F13Q]: the protein stability index was 2.96.

With TVPEILVHNIVIAMRTSVKISYIG [F13A], the protein stability index came out at 3.07.

In the case of TVPEILVHNIVIKMRTSVKISYIG [F13K], the protein stability index came out at 3.49.

With TVPEILVHNIVILMRTSVKISYIG [F13L], the protein stability index was determined as 4.27.

TVPEILVHNIVICMRTSVKISYIG [F13C]: the protein stability index came to 3.25.

In the case of TVPEILVHNIVIVMRTSVKISYIG [F13V], the protein stability index amounted to 3.33.

TVPEILVHNIVIMMRTSVKISYIG [F13M]: the protein stability index is 2.42.

For the variant TVPEILVHNIVIHMRTSVKISYIG [F13H], the protein stability index stood at 2.11.

Regarding TVPEILVHNIVINMRTSVKISYIG [F13N], the protein stability index stood at 3.17.

Turning to TVPEILVHNIVIDMRTSVKISYIG [F13D], the protein stability index was 2.85.

With TVPEILVHNIVIPMRTSVKISYIG [F13P], the protein stability index came to 3.22.

In the case of TVPESLVHNIVIFMRTSVKISYIG [I5S], the protein stability index stood at 2.36.

On to TVPEMLVHNIVIFMRTSVKISYIG [I5M], for which the protein stability index was 2.67.

TVPELLVHNIVIFMRTSVKISYIG [I5L]: the protein stability index turned out to be 2.94.

On to TVPEWLVHNIVIFMRTSVKISYIG [I5W], for which the protein stability index is 2.49.

TVPETLVHNIVIFMRTSVKISYIG [I5T]: the protein stability index came out at 3.88.

With TVPEHLVHNIVIFMRTSVKISYIG [I5H], the protein stability index was 4.38.

In the case of TVPENLVHNIVIFMRTSVKISYIG [I5N], the protein stability index was 2.34.

Consider TVPEQLVHNIVIFMRTSVKISYIG [I5Q], for which the protein stability index came to 3.61.

On to TVPEYLVHNIVIFMRTSVKISYIG [I5Y], for which the protein stability index amounted to 2.58.

In the case of TVPEGLVHNIVIFMRTSVKISYIG [I5G], the protein stability index amounted to 2.54.

In the case of TVPEFLVHNIVIFMRTSVKISYIG [I5F], the protein stability index was 3.14.

For TVPEKLVHNIVIFMRTSVKISYIG [I5K], the protein stability index stood at 1.73.

Turning to TVPERLVHNIVIFMRTSVKISYIG [I5R], the protein stability index came out at 2.19.

In the case of TVPEPLVHNIVIFMRTSVKISYIG [I5P], the protein stability index was determined as 3.34.

TVPEIYVHNIVIFMRTSVKISYIG [L6Y]: the protein stability index was determined as 2.26.

Take TVPEINVHNIVIFMRTSVKISYIG [L6N]: the protein stability index was 2.24.

Regarding TVPEIQVHNIVIFMRTSVKISYIG [L6Q], the protein stability index is 2.44.

As to TVPEIFVHNIVIFMRTSVKISYIG [L6F], the protein stability index was found to be 2.25.

With TVPEIEVHNIVIFMRTSVKISYIG [L6E], the protein stability index stood at 2.11.

In the case of TVPEISVHNIVIFMRTSVKISYIG [L6S], the protein stability index amounted to 2.77.

As for TVPEIGVHNIVIFMRTSVKISYIG [L6G], the protein stability index is 3.13.

For the variant TVPEIVVHNIVIFMRTSVKISYIG [L6V], the protein stability index was found to be 4.06.

On to TVPEIHVHNIVIFMRTSVKISYIG [L6H], for which the protein stability index amounted to 3.88.

Regarding TVPEIWVHNIVIFMRTSVKISYIG [L6W], the protein stability index was 2.8.
